From PMC3422339, “Interactions and CCAAT-Binding of Arabidopsis thaliana NF-Y Subunits” (PLoS ONE, 2012)

How the values were obtained:
Conditions in all cases: both partners purified
[1] = molecular target: T1, AtNF-YB2/AtNF-YC3 dimer (recombinant, renatured together) (Arabidopsis thaliana, UniProt Q9FGJ3 1-190; Q9ZVL3 1-217); experiment: native gel or EMSA; Figure 5A: recombinant AtNF-YB/AtNF-YC dimers with recombinant AtNF-YA6 or recombinant mouse NF-YA; 32P-labelled CCAAT oligonucleotide; NF-Y buffer, 15 min 20°C; 4.5% polyacrylamide; the read-out is the trimer bound to DNA
T1 construct: AtNF-YB2, Arabidopsis thaliana; as the chain of m23; AtNF-YC3, Arabidopsis thaliana; as the chain of m43; source: E. coli, each subunit purified from inclusion bodies, denatured and renatured when mixed together
T1 sequence (looked up) 1: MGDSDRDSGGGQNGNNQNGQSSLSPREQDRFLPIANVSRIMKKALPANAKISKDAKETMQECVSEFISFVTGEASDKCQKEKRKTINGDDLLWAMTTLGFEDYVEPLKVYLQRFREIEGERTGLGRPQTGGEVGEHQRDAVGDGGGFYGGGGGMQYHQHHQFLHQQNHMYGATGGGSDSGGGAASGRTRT
T1 sequence (looked up) 2: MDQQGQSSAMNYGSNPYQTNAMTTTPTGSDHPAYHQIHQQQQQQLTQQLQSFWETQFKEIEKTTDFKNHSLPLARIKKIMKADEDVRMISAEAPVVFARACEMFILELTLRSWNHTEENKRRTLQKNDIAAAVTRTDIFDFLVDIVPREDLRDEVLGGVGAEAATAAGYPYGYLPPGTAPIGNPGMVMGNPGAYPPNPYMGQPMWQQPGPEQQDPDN

[2] = molecular target: T2, His-tagged recombinant AtNF-YC7 (Arabidopsis thaliana, UniProt Q9FGP8 1-212); experiment: co-renaturation of denatured subunits; single His-tagged HFD subunits from E. coli inclusion bodies, denatured and renatured when mixed together
T2 construct: AtNF-YC7, Arabidopsis thaliana; source: E. coli, purified (Nickel-agarose); found in inclusion bodies, denatured and renatured
T2 sequence (looked up): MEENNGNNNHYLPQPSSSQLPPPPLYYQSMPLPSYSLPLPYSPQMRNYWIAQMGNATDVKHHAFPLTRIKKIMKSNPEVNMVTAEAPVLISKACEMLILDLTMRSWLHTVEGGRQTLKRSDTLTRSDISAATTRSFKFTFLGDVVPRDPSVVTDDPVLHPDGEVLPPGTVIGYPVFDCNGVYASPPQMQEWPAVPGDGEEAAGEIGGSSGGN

[3] = molecular target: T3, His-tagged recombinant AtNF-YC3 (Arabidopsis thaliana, UniProt Q9ZVL3 1-217); experiment: as above
T3 construct: AtNF-YC3, Arabidopsis thaliana; source: E. coli, purified (Nickel-agarose); found in inclusion bodies, denatured and renatured
T3 sequence (looked up): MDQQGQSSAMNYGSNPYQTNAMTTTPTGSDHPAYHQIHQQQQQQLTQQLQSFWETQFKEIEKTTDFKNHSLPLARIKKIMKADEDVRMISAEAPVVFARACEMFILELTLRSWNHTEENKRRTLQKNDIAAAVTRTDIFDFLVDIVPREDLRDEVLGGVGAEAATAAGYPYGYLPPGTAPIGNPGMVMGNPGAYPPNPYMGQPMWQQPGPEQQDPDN

B1: recombinant AtNF-YA6 (His-tagged) (natural protein)
chain: not shown
notes: AtNF-YA6, Arabidopsis thaliana; 308 residues as printed; source: E. coli, purified (Nickel-agarose)
binding result [1]: binds

B2: His-tagged recombinant AtNF-YB2 (natural protein, Arabidopsis thaliana, UniProt Q9FGJ3 1-190, looked up)
chain: MGDSDRDSGGGQNGNNQNGQSSLSPREQDRFLPIANVSRIMKKALPANAKISKDAKETMQECVSEFISFVTGEASDKCQKEKRKTINGDDLLWAMTTLGFEDYVEPLKVYLQRFREIEGERTGLGRPQTGGEVGEHQRDAVGDGGGFYGGGGGMQYHQHHQFLHQQNHMYGATGGGSDSGGGAASGRTRT
notes: AtNF-YB2, Arabidopsis thaliana; also called His-AtNF-YB2; source: E. coli BL21, purified (Nickel-agarose); found in inclusion bodies, denatured and renatured
binding result [2]: binds | binding result [3]: binds

B3: recombinant mouse NF-YA (347 residues) (natural protein)
chain: not shown
notes: mouse NF-YA; 347 residues as printed; source: recombinant
binding result [1]: binds
